According to publication PMC12207370, “Macrocyclic Peptide Probes for Immunomodulatory Protein CD59: Potent Modulators of Bacterial Toxin Activity and Antibody‐Dependent Cytotoxicity” (Angewandte Chemie (International Ed. in English), 2025):

Target: T1, biotinylated CD59 (Homo sapiens, UniProt P13987)
T1 construct: Recombinant soluble human CD59 with an additional C-terminal cysteine residue
T1 sequence (P13987 26-102 limits assumed): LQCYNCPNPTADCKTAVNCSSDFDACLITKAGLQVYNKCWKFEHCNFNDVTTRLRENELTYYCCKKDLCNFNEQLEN
Test: mRNA-display cyclic peptide screen against CD59-biotin, NGS abundance after 6th selection round
Conditions: for Counts (raw counts for peptide sequence), Seq I: NGS sample Seq I; for Counts (raw counts for peptide sequence), Seq I / Counts (raw counts for peptide sequence), Seq II / Counts Seq I / Counts Seq II: sheet R6 (6th selection round); for Counts (raw counts for peptide sequence), Seq II: NGS sample Seq II; for Percentage of the pool, averaged across the two sequencing samples: average of Seq I and Seq II; for Percentage of the pool, averaged across the two sequencing samples / Percentage of the pool, Seq I / Percentage of the pool, Seq II / Percentage Seq I / Percentage Seq II / Percentage Average: sheet R6; for Percentage of the pool, Seq I: counts normalised by total counts of NGS sample Seq I; for Percentage of the pool, Seq II: counts normalised by total counts of NGS sample Seq II; for Percentage Seq I: counts normalised by total counts of sample Seq I; for Percentage Seq I / Percentage Seq II: percentage of the pool; for Percentage Seq II: counts normalised by total counts of sample Seq II; for Percentage Average: percentage of the pool averaged across the two sequencing samples; for Counts Seq I / Counts Seq II: raw NGS counts of peptide sequence; for Counts Seq I: sequencing sample Seq I; for Counts Seq II: sequencing sample Seq II
From the text: To discover novel non‐protein CD59 ligands, we screened a library of 10^12 cyclic peptides against CD59 using mRNA‐display (Figure 2a).^[ [23], [24], [25], [26], [27], [28], [29] ^] Briefly, an mRNA library was designed in which the start codon was reprogrammed from Met to N‐chloroacetyl‐D‐Tyr (ClAc‐D‐Tyr), followed by 10–12 randomly encoded natural amino acids, a Cys residue, a (GlySer)3 linker, and a stop codon. […] The total library diversity was 1.51 × 10^13 molecules, comprising 5.02 × 10^12 molecules of each macrocycle size, covering a subset of the maximum theoretical diversity of this library design. Following in vitro translation, ClAc‐D‐Tyr spontaneously reacts with either the C‐terminal Cys or a Cys in the random region, yielding macrocyclic thioether peptides. Hits from the library were identified through iterative enrichment and amplification against biotinylated CD59, then immobilized on streptavidin beads. Fifteen hit sequences (CP‐01 to CP‐15), enriched with abundance >1% relative to the total pool of recovered binders after the 6th round of selection, were synthesized by solid phase peptide synthesis (SPPS), without the (Gly‐Ser)3 linker.
Figure 2 Discovery of macrocyclic peptide ligands with nanomolar CD59 affinity using mRNA display. a) The selection process. PCR = polymerase chain reaction, SPPS = solid phase peptide synthesis. b) Table showing details of the peptides with nanomolar affinity for CD59 as well as the binding affinity of the lead inhibitor of CD59, rILYd4. K D values are presented as the average of three technical replicates ± SEM. Structures of all peptides and SPR sensograms are presented in Figures S1 and S2. *indicates the presented sequences are the variable regions of these cyclic peptides; each is flanked by an N‐terminal Ac‐D‐Tyr cyclized to a C‐terminal Cys. R6 abundance (%) is defined as (the given number of NGS reads for a given sequence/the total number of reads of unique sequences observed in NGS)*100 following the 6th selection round. c) Representative sensogram of the interaction between CP‐06 with immobilized CD59 by SPR analysis. Inset showing the equilibrium binding curve of CP‐06 to CD‐59. Below in the box are the association and dissociation rate constants of CP‐06. Concentrations are plotted in descending order from 800‐3.1 nM in line with their position on the legend. […] (nM)'; the box with Kon/Koff has no label of its own / ILYd4: the label may be cut off at the left edge (possibly 'rILYd4') / CP-02, KD: 15.3 ± 0.2, small print, 3 or 8 uncertain / CP-03, KD: 23.4 ± 0.7, small print / CP-06, KD: 11.3 ± 0.0, small print, 3 or 8 uncertain / CP-13, KD: 10.8 ± 0.7, small print, 8 or 6 uncertain / ILYd4, KD: 48.3 ± 1.1, small print, 8 and 3 uncertain
The mRNA-display cyclic peptide screen was performed against CD59-biotin by T.E.M: DNA templates for transcription were generated by PCR in a similar manner to that previously described.^2 RNA oligonucleotides were transcribed from the DNA templates using T7 RNA polymerase and purified by phenol/chloroform extraction followed by ethanol precipitation. Oligonucleotide concentrations were determined spectroscopically by absorbance at 260 nm. In the first selection round a 1:1:1 molar ratio of NNK10/NNK11/NNK12 was used. The procedure for selection rounds 2-6 is described below; round 1 was conducted at twice the scale.
RNA encoding for the peptide library ligated to a puromycin-modified oligonucleotide was […] (final [RNA] = 2.5 µM) using a customised PURE express kit (lacking release factor 1 and methionine, supplemented with […] initiator tRNA acylated with N-chloroacetyl-d-tyrosine prepared as previously described)^3 in a final volume of 5.6 µL for 1 hour at 37 °C.
This mixture was incubated at 42 °C for 1 hour before being diluted to 500 µL with PBS (10 mM Na-PO4 pH 7.4, 2.7 mM KCl, 137 mM NaCl) and 0.5 µL taken for subsequent use in qPCR. […]

Row | Substance | Counts (raw counts for peptide sequence), Seq I | Counts (raw counts for peptide sequence), Seq II | Percentage of the pool, averaged across the two sequencing samples | Percentage of the pool, Seq I | Percentage of the pool, Seq II | Percentage Seq I | Percentage Seq II | Percentage Average | Counts Seq I | Counts Seq II
1 | CYGNSHAS | 36 | 8 | 0.013% | 0.008% | 0.019% |  |  |  |  | 
2 | CFSSRTGTTSV | 39 | 10 | 0.016% | 0.009% | 0.023% |  |  |  |  | 
3 | TSYGSRVFAYF |  |  |  |  |  | 0.031% | 0.030% | 0.031% | 135 | 13
4 | DPWCTPFSNVT |  |  |  |  |  | 0.186% | 0.209% | 0.198% | 815 | 90
5 | CLRRSYEATSI |  |  |  |  |  | 0.020% | 0.021% | 0.021% | 88 | 9
6 | SAWGNRQIQY+ |  |  |  |  |  | 0.026% | 0.016% | 0.021% | 114 | 7
7 | SFAKRVAAQGGC |  |  |  |  |  | 0.030% | 0.021% | 0.026% | 133 | 9
8 | FVRGNRYSVLG | 64 | 5 | 0.013% | 0.015% | 0.012% |  |  |  |  | 
9 | RAWGNRYIAYY |  |  |  |  |  | 0.027% | 0.030% | 0.029% | 119 | 13
10 | NYVERLCTSG | 68 | 5 | 0.014% | 0.016% | 0.012% |  |  |  |  | 
11 | CSAGRLTIDAV | 37 | 6 | 0.011% | 0.00846% | 0.014% |  |  |  |  | 
12 | TISGGRDYTRG |  |  |  |  |  | 0.948% | 0.935% | 0.941% | 4146 | 403
13 | FVTGNRDNTRG | 80 | 6 | 0.016% | 0.018% | 0.014% |  |  |  |  | 
14 | CYGSRTFIYAWS |  |  |  |  |  | 0.026% | 0.019% | 0.022% | 114 | 8
15 | LRGSYDYQLYFG |  |  |  |  |  | 0.013% | 0.023% | 0.018% | 57 | 10
16 | SWTWGNRSSVSG | 73 | 2 | 0.011% | 0.017% | 0.00464% |  |  |  |  | 
17 | FVTGNRNHTRG |  |  |  |  |  | 0.032% | 0.028% | 0.030% | 142 | 12
18 | CFSRRLAAGAI | 35 | 5 | 0.010% | 0.008% | 0.012% |  |  |  |  | 
19 | WIRGNRDESLG | 46 | 7 | 0.013% | 0.011% | 0.016% |  |  |  |  | 
